Earlier results as cited in article PMC6535718.

Target: Bfd (Pseudomonas aeruginosa) (UniProt Q9HY80)
Sequence (Q9HY80 whole entry): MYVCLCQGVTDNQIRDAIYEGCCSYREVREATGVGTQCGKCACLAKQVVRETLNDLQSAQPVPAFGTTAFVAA

Chain of BfrB (Q9HY79 whole entry): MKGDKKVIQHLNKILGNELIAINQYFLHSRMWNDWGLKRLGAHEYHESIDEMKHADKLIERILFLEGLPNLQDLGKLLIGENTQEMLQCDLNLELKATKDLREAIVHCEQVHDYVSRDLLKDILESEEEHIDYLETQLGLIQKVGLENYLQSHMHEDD

Q: With BfrB (from UniProt Q9HY79) as the substance, how does the Kd read?
A: 3.4 µM
